Experimental data: patent publication US20250295798A1 (BEIGENE SWITZERLAND, published 2025)

B1: Patritumab (antibody, V domains shown)
VH: QVQLQQWGAGLLKPSETLSLTCAVYGGSFSGYYWSWIRQPPGKGLEWIGEINHSGSTNYNPSLKSRVTISVETSKNQFSLKLSSVTAADTAVYYCARDKWTWYFDLWGRGTLVTVSS
VL: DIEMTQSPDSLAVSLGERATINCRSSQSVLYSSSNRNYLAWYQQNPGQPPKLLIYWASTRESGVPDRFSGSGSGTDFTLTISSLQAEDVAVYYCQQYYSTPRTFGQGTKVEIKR
B2: mAb10 (antibody, V domains shown)
VH: EVQLLESGGGLVQPGGSLRLSCAVSGGSFSGYYWSWIRQAPGKGLEWIGEINHSGSTNYNPSLKSRFTISVDNSKNTFYLQMNSLRAEDTAVYYCARDKWTWYFDLWGRGTLVTVSS
VL: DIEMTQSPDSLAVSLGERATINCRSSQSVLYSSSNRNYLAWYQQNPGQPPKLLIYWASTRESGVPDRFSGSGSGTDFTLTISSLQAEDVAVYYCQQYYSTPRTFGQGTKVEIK
notes: Produced from heavy chain and kappa chain plasmids in CHO cells

Tests used:
hHER3-his = biological target: T1, hHER3-his (human, UniProt P21860 20-643); assay: SPR (BIAcore 8K), mAb captured by anti-human Fc, Her3-his as analyte, 1:1 Langmuir fit, 25 C
T1 construct: Bought reagent; also called Her3-his (cat10201-H08H, SinoBiological); not shown: his tag
Protocol: Binding kinetics of the mAbs to the target was determined by SPR on a BIAcore 8K (GE Healthcare). The running buffer, 10 mM HEPES, 150 mM NaCl, 0.05% v/v Surfactant P20, 3 mM EDTA, pH 7.4 (HBS-EP+, GE Healthcare) was used for immobilization and reagent dilutions. All binding kinetics were measured at 25° C. For each injection cycle, mAbs were first captured in different flow cells with an anti-human Fc antibody (Human Antibody Capture Kit, GE Healthcare) immobilized to the sensor chip (Series S CM5, GE Healthcare). Reference flow cell with no captured mAb was also used. Serial dilutions of Her3-his(cat10201-H08H, SinoBiological), and buffer blanks were injected in multiple cycles over the captured mAbs and reference surfaces for association followed by dissociation. The surfaces were regenerated with an injection of 3 M MgCl2 after each cycle. Double-referenced titration data was globally fit to a 1:1 Langmuir binding model to determine the association rate constant, ka (M−1 s−1), and the dissociation rate constant, kd (s−1), using the BIAcore Insight Evaluation Software version 2.0 (GE Healthcare). The equilibrium dissociation constant was calculated as KD(M)=kd/ka.

[1] = biological target: T2, human HER3 (native, on A375 cells) (human, UniProt P21860 20-1342); assay: flow cytometry (FACS) on A375 cells, anti-human IgG Alexa Fluor 647 detection, 4-parameter fit
T2 construct: whole, on cells; also called native Her3; human native Her3
Protocol: Cell fluorescence was quantified using a flow cytometer (Guava easyCyte 8HT, Merck-Millipore, USA). EC50 values for dose-dependent binding to human native Her3 were determined by fitting the dose-response data to the four-parameter logistic model with GraphPad Prism.

| Binder | Kd (hHER3-his) [nM] | EC50 [1] [nM] |
| --- | --- | --- |
| B1 | 1.51 | 0.59 |
| B2 | 2.52 | 0.83 |
